Numbering of substitutions follows the chain as printed.
B1: Clone 17L IgG1 (modified) (antibody)
heavy: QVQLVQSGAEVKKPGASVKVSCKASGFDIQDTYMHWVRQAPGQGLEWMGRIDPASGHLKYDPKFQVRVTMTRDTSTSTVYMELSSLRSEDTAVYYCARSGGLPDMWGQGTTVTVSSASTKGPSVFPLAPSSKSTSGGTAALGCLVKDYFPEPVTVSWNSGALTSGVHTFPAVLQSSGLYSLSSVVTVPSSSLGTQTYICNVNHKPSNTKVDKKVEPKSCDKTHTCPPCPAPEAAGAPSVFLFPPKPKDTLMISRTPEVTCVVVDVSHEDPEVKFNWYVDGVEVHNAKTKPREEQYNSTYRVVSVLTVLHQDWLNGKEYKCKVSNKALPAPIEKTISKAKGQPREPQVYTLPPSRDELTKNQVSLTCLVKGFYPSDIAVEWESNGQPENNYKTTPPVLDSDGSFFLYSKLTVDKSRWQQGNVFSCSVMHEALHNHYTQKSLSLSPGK
light: EIVLTQSPGTLSLSPGERATLSCRASSSVSYMYWYQQKPGQAPRLLIYATSNLASGIPDRFSGSGSGTDFTLTISRLEPEDFAVYYCQQWQGNPRTFGGGTKLEIKRTVAAPSVFIFPPSDEQLKSGTASVVCLLNNFYPREAKVQWKVDNALQSGNSQESVTEQDSKDSTYSLSSTLTLSKADYEKHKVYACEVTHQGLSSPVTKSFNRGEC
notes: also called 17L G1
B2: Clone 47 IgG1 (modified) (antibody)
heavy: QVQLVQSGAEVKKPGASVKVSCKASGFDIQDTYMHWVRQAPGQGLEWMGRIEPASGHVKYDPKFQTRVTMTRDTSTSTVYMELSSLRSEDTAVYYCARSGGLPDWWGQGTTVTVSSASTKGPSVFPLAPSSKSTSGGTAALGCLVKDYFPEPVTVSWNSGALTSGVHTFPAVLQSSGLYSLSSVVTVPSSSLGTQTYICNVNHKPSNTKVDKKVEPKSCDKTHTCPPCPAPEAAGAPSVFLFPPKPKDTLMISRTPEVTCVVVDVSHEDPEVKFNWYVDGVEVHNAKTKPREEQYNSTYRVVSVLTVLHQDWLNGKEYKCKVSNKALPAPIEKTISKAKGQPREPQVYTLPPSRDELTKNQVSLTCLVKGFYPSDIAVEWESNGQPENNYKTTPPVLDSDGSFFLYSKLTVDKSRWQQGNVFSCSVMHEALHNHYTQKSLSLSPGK
light: B1 light with Q91E
notes: also called 47 G1; variant 47
B3: Clone 17L IgG2 (antibody)
heavy: QVQLVQSGAEVKKPGASVKVSCKASGFDIQDTYMHWVRQAPGQGLEWMGRIDPASGHLKYDPKFQVRVTMTRDTSTSTVYMELSSLRSEDTAVYYCARSGGLPDMWGQGTTVTVSSASTKGPSVFPLAPCSRSTSESTAALGCLVKDYFPEPVTVSWNSGALTSGVHTFPAVLQSSGLYSLSSVVTVPSSNFGTQTYTCNVDHKPSNTKVDKTVERKCCVECPPCPAPPVAGPSVFLFPPKPKDTLMISRTPEVTCVVVDVSHEDPEVQFNWYVDGVEVHNAKTKPREEQFNSTFRVVSVLTVVHQDWLNGKEYKCKVSNKGLPAPIEKTISKTKGQPREPQVYTLPPSREEMTKNQVSLTCLVKGFYPSDIAVEWESNGQPENNYKTTPPMLDSDGSFFLYSKLTVDKSRWQQGNVFSCSVMHEALHNHYTQKSLSLSPGK
light: B1 light
notes: also called 17L G2
B4: Clone 47 IgG2 (antibody)
heavy: B3 heavy with D52E, L58V, V66T, M105W
light: B1 light with Q91E
notes: also called 47 G2
B5: Clone 2 Fab (Fab, V domains shown)
VH: QVQLVQSGAEVKKPGASVKVSCKASGFDIQDTYMHWVRQAPGQGLEWMGRIEPASGHIKYSPKFQGRVTMTRDTSTSTVYMELSSLRSEDTAVYYCARSGGLPDWWGQGTTVTVSS
VL: EIVLTQSPGTLSLSPGERATLSCRASSSVSYMYWYQQKPGQAPRLLIYATSNLASGIPDRFSGSGSGTDFTLTISRLEPEDFAVYYCQQWEGNPRTFGGGTKLEIK
notes: Fab
B6: Clone 17L Fab (Fab, V domains shown)
VH: B5 VH with E52D, I58L, S61D, G66V, W105M
VL: B5 VL with E91Q
notes: Fab
B7: Clone 46 Fab (Fab, V domains shown)
VH: B5 VH with I58V, G66V
VL: B5 VL
notes: Fab
B8: Clone 47 Fab (Fab, V domains shown)
VH: B5 VH with I58V, S61D, G66T
VL: B5 VL
notes: Fab
B9: Clone 52 Fab (Fab, V domains shown)
VH: B5 VH
VL: B5 VL with R24G
notes: Fab

Target: T1, membrane-associated human TL1A on transfected HEK293 cells (human, UniProt O95150 1-251)
T1 construct: whole, on cells
T1 sequence (looked up): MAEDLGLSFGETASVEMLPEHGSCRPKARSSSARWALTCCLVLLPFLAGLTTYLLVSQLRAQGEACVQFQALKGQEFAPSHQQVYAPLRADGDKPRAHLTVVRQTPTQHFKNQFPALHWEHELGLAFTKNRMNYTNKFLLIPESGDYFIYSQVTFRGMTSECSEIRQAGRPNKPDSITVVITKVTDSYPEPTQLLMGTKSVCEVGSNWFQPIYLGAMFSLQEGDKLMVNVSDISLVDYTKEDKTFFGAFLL
Assay: flow cytometry, HEK293 cells expressing human TL1A, IgG

Binder | binding result
B1 | binds
B2 | binds
B3 | binds
B4 | binds

Target: T1, membrane-associated human TL1A on …
Assay: flow cytometry, HEK293 cells expressing human TL1A, Fab
Method: All the Fab variants were tested for binding to membrane-associated human TL1A. For these studies a HEK293 cell line that had been transfected with human TL1A was used. The 293 cells expressing membrane bound human TL1A were maintained in DMEM containing L-glutamine, glucose, sodium pyruvate, and phenol red (ThermoFisher cat #11995-065) plus 10% fetal bovine serum, 1× penicillin-streptomycin (Fisher cat #15140122) and 2 μg/ml puromycin (Gibco cat #A11138-03) in a 37° C. incubator with 5% CO₂. Three days prior to the assay, a T-75 flask was seeded with 3×10⁶ cells so that the flask was 90-95% confluent on the day of the assay. The media was aspirated and the cell monolayer was gently washed with 5 ml PBS. Adherent cells were removed by repeatedly pipetting 10 ml ice cold 1% BSA/PBS against the monolayer. The cells were counted and 5×10⁵ were aliquoted for each sample to be analyzed. The cells were collected by centrifuging at 300×g at 4° C. for 5 minutes and the wash was discarded. The cells were resuspended in 100 μl Fab or IgG diluted in 1% BSA/PBS and placed on ice for 30 min. Next, the cells were washed with 1 ml 1% BSA/PBS and collected by centrifuging at 300×g at 4° C. for 5 min. The wash was discarded and 100 μl secondary goat F(ab′)2 anti-human kappa FITC (Southern Biotech cat #2062-02) or goat F(ab′)2 anti-human IgG PE (Southern Biotech cat #2043-09) conjugate, diluted 1:200 in BSA/PBS was added. Cells were placed on ice for 30 min. Finally, the cells were washed with 1 ml BSA/PBS, collected by centrifuging at 300×g at 4° C. for 5 min. The wash was removed and the cells were resuspended in 500 μl 1% BSA/PBS. One drop of Sytox AADvanced ReadyFlow Reagent (ThermoFisher cat #R37173) was added per sample and the samples were analyzed on the Attune NxT Flow Cytometer (ThermoFisher).

Binder | binding result
B5 | binds
B6 | binds
B7 | binds
B8 | binds
B9 | binds

From patent US20230192835A1 (PROMETHEUS BIOSCIENCES, published 2023)
